We go through four molecules from WO2021084104A1 (dated 2021).

In assay [1] the target is T1, full-length CD40 on cells (transfected CHO-S cells, Raji B-cell line, primary B cells) (human, UniProt P25942 21-277).
T1 construct: whole, on cells; also called target expressing cells
Description: flow cytometry on transfected and endogenously expressing cells (Fig. 6A). For orientation: Flow cytometry measures light scatter and fluorescence of single cells or particles in a stream.

Assay [2] deals with T2, full-length OX40 on cells (transfected CHO-S cells, in vitro activated CD4 positive T-cells) (human, UniProt P43489 29-277).
T2 construct: whole, on cells; also called 0X40; target expressing cells
T2 sequence (looked up): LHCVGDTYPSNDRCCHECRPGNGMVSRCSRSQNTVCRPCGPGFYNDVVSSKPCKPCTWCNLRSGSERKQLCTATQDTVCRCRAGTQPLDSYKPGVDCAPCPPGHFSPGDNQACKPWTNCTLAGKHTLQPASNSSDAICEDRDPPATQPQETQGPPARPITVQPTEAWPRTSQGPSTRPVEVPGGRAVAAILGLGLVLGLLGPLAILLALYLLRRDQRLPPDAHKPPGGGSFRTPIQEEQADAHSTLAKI
Described as above.

The target in assay [3] is T1, full-length CD40 on cells (transfected …). Description: flow cytometry on overexpressing or endogenously expressing cells (Fig. 7).
Assay [4] deals with T2, full-length OX40 on cells (transfected …). Described as above.
In assay [5] the target is T3, full-length 4-1BB on cells (transfected CHO-S cells, in vitro activated CD4 positive T-cells) (human, UniProt Q07011 24-255).
T3 construct: whole, on cells; also called target expressing cells
Description: flow cytometry on transfected and endogenously expressing cells (Fig. 6C).

In assay [6] the target is T2, full-length OX40 on cells (transfected …). The assay is described as above.
Assay [7] deals with T3, full-length 4-1BB on cells (transfected …). Description: flow cytometry on transfected and endogenously expressing cells (Fig. 6B).
For assay [8], the target named is T1, full-length CD40 on cells (transfected …). Described as above.

T1 sequence (P25942 21-277): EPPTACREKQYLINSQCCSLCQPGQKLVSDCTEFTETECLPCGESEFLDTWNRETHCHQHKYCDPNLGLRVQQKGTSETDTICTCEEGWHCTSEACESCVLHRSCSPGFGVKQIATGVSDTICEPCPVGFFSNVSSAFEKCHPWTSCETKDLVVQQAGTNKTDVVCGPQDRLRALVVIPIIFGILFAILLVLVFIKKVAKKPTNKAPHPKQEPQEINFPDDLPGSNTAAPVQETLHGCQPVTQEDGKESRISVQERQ
T3 sequence (Q07011 24-255): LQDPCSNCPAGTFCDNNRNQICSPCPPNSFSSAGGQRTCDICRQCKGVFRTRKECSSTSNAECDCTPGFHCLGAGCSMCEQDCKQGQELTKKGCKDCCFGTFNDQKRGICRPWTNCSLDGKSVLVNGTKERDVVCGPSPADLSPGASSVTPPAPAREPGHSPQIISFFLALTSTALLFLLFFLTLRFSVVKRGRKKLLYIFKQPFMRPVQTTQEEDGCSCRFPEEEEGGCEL

B1: tetra VH IgG #2 (VH-CH1=OX40 #2, VH-CL=CD40 #5) (bispecific antibody, V domains shown, not shown: a dimerising Fc or GST)
V domain 1: EVQLLESGGGLVQPGGSLRLSCAASGFTFSSYAMSWVRQAPGKGLEWVSGVSGGGGSTYYADSVRGRFTISRDNSKNTLYLQMNSLRAEDTAVYYCARGWDDINVWGQGTLVTVSS
V domain 2: EVQLLESGGGLVQPGGSLRLSCAASGFTFSSYTMDWVRQAPGKGLEWVSSISESGDTTDYADSVKGRFTISRDNSKNTLYLQMNSLRAEDTAVYYCARCSGGSCYSVNWGQGTLVTVSS
notes: Human IgG1 format with a VH in place of the VL; no VL domain; also called anti-CD40/OX40 tetra-VH IgG; OX40/CD40 bispecific antibody
Consider B1, for which the binding result in assay [1] and in assay [2] was “binds” in each case.

B2: tetra VH IgG #5 (VH-CH1=CD40 #5, VH-CL=OX40 #2) (bispecific antibody, V domains shown, not shown: a dimerising Fc or GST)
V domain 1: EVQLLESGGGLVQPGGSLRLSCAASGFTFSSYTMDWVRQAPGKGLEWVSSISESGDTTDYADSVKGRFTISRDNSKNTLYLQMNSLRAEDTAVYYCARCSGGSCYSVNWGQGTLVTVSS
V domain 2: EVQLLESGGGLVQPGGSLRLSCAASGFTFSSYAMSWVRQAPGKGLEWVSGVSGGGGSTYYADSVRGRFTISRDNSKNTLYLQMNSLRAEDTAVYYCARGWDDINVWGQGTLVTVSS
notes: Human IgG1 format with a VH in place of the VL; no VL domain; also called tetra VH lgG#5
Take B2: the binding result in assay [3] and in assay [4] was “binds” throughout.

B3: tetra VH IgG #20 (VH-CH1=41BB #4, VH-CL=OX40 #2) (bispecific antibody, V domains shown, not shown: a dimerising Fc or GST)
V domain 1: EVQLLESGGGLVQPGGSLRLSCAASGFTFGDYAMSWFRQAPGKGLEWVAVLSYDGSNTDYADSVKGRFTISRDNSKNTLYLQMNSLRAEDTAVYYCAKGPLILAAGNYWGQGTLVTVSS
V domain 2: EVQLLESGGGLVQPGGSLRLSCAASGFTFSSYAMSWVRQAPGKGLEWVSGVSGGGGSTYYADSVRGRFTISRDNSKNTLYLQMNSLRAEDTAVYYCARGWDDINVWGQGTLVTVSS
notes: Human IgG1 format with a VH in place of the VL; no VL domain; also called anti 0X40/41 BB tetra-VH IgG
Turning to B3, the binding result in assay [5] and in assay [6] was “binds” in each case.

B4: tetra VH IgG #4 (VH-CH1=41BB #4, VH-CL=CD40 #3) (bispecific antibody, V domains shown, not shown: a dimerising Fc or GST)
V domain 1: EVQLLESGGGLVQPGGSLRLSCAASGFTFGDYAMSWFRQAPGKGLEWVAVLSYDGSNTDYADSVKGRFTISRDNSKNTLYLQMNSLRAEDTAVYYCAKGPLILAAGNYWGQGTLVTVSS
V domain 2: EVQLLESGGGLVQPGGSLRLSCAASGFTFSSYAMSWVRQAPGKGLEWVSRLNSDGITATYADSVKGRFTISRDNSKNTLYLQMNSLRAEDTAVYYCARGKIPAIDHWGQGTLVTVSS
notes: Human IgG1 format with a VH in place of the VL; no VL domain; also called tetra VH lgG#4; anti-41 BB/CD40 tetra-VH IgG
As for B4, the binding result in assay [7] and in assay [8] was “binds” in each case.
